This passage reports percent of RAIDD DD:PIDD DD complex formation blocked results from paper PMC4977500.

This experiment addresses RAIDD DD (UniProt P78560). Briefly: native gel or EMSA; native-PAGE on a PhastSystem, 8-25% acrylamide gradient gels, Coomassie staining; complexes in 20 mM Tris pH 8.0, 50 mM NaCl; pre-incubated with or without peptide for 1 hour at room temperature; complex band without peptide taken as 100%. (A gel shift assay detects complexes by their altered migration in electrophoresis.)

RAIDD DD, sequence (P78560 94-199): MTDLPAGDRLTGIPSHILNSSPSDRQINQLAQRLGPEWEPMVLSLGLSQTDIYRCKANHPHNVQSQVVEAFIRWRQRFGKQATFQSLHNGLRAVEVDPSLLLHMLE

“TAT-Y814A (previously generated TAT-fused PIDD peptide with the mutation Y814A)” yielded a percent of RAIDD DD:PIDD DD complex formation blocked at 30 μM peptide of 50%.
